Measured values taken from PMC3098157.

Experiments:
[1] = target: LEDGF/p75 WT (Lens epithelium-derived growth factor/p75) (UniProt O75475)
[2] = target: LEDGF/p75 ΔPWWP (stably expressed in HEK293T-derived cells)
[3] = target: FLAG-tagged LEDGF/p75 ΔPWWP
FLAG-tagged LEDGF/p75 WT = FLAG-tagged LEDGF/p75 WT (UniProt O75475)

| Substance | salt extraction assay: percent of LEDGF/p75 WT extracted from chromatin at NaCl above 200 mM in cells co-expressing HIV-1 integrase (around 70% without integrase) [1] | salt extraction assay: percent of LEDGF/p75 ΔPWWP extracted from chromatin at 100 mM and 150 mM NaCl in cells co-expressing HIV-1 integrase (30% and 70% without integrase) [2] | salt extraction assay, transient coexpression: NaCl needed for complete extraction of LEDGF/p75 ΔPWWP from chromatin with integrase WT (150 mM without integrase) [3] | salt extraction assay, transient coexpression: NaCl needed to extract LEDGF/p75 WT from chromatin with integrase WT (250 mM without integrase) (FLAG-tagged LEDGF/p75 WT) |
| --- | --- | --- | --- | --- |
| Myc-tagged HIV-1 integrase (enzyme) | < 1% | < 2% |  |  |
| Myc-eGFP-tagged HIV-1 integrase WT (enzyme) |  |  | > 200 mM | > 300 mM |
